Results on 2 substances are retold here after patent US20080159989A1.

In this test the target is Nodal (mouse) (UniProt P43021).

Turning to Cerberus-Short (CerS), the % of beating EB (Cripto-/- ES cells transfected with Cerberus-S, EBs treated with recombinant Cripto) (% of beating EB) stood at 8.3. With Cerberus, the % of beating EB (Cripto-/- ES cells transfected with Cerberus, EBs treated with recombinant Cripto) (% of beating EB) was 10.3.
